This data set in a line: soluble fraction after stress (log2 fold change); higher = more stays soluble; pooled small domains, quantitative proteomics. Conditions: stress: 75 degC.
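Also: 20 min heating vs room temperature control held 20 min.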

For “HMSARKVTVALHTRDHADRLRRLLKHEGVSADLVAARLSHKLTDHPIEVRVNEDDIPAVLRIIENIEIF”, the “soluble fraction (log2)” value was -1.61.
Take “HMSASLPAAVEDPDLPYRVGAKLRHARWGEGLLVGIQREGSDVIATVHFASVGRKRLSLQYAHLEE”: the “soluble fraction (log2)” value is -2.17.
Turning to “HMSATIMVLRASEDIPVGTEIKDNHLTTVEVGSYGLPEGAINDKDTVLGKVAQTNIIKGDYFFPQKLGG”, the “soluble fraction (log2)” value is 0.339.
For the sequence “HMSDAQIKASINDLWFKYNLETFAKLNLNVNQGRVLVTGIVQNPEHRLEAIRLVWTVDGVQQVINEIQVAE”, the “soluble fraction (log2)” value was -2.33.
Take “HMSDDIPVHYRLDVNDAARALKLLTDNGFSAETAESGLNVYMTRLQSAEAARLLVENNIAVYGLTAV”: the “soluble fraction (log2)” value is -0.297.
The figure for “HMSDDLIILGYSMLNNALKAFHIDPDSIKKKHWDKLAQDYHLKNKNQILTDIALGKRVNIMVAHQLTTIMD” is -0.738; for “HMSDDSYLVALAEAYKNATSWDIRRQVLSIMTGVSSYKEISRYIPGLTQYRLSISNLHRLQYGRAAPVP” it is 0.0264; for “HMSDEAGKVLQLLRENGGYLPYNDRSDPEDIYAFFSMSKKTFKMTAGNLYKQKKIIFTNTGIKLTE” it is -3.51.
For the sequence “HMSDEVNTDKAFRAIDSTLNRNVKGIAPRDHTLLRNTMITYFKSNDYIDYDTMIQSTLENYKPTELEQDKM”, the “soluble fraction (log2)” value was determined as 0.0497.
The figure for “HMSDGHLIKVLEVLDGGEAFLGRTANGGTARFSLGQLADIRRGSVVFVSEDRWEVVPDSAWPEI” is -1.1.
Take “HMSDGIPDLRNLNFLSPQEGDYLNESDRVFGVTINGDGQAYPLRIVNAHEMVNDTLGGEPISLM”: the “soluble fraction (log2)” value worked out at 0.124.
The value for “HMSDHKNANFTKVVKVAQELLQDEDDKAGITPTLIEEKISAVLAMNRRWAEGLDRAAVADELIRRFSIW” was -0.847; that for “HMSDIATLVPGPTDAELAASALRGLDAALDADTPVRLSLGEPGGEVEVPRSVLAALARVLDSFAHGEGVTL” was -0.0408.
For the sequence “HMSDIISEIESQVMFKLATYEITNATEKMIEALINSEINDRRTLGFPIPNEQGRIFLVRSIQNKLAV”, the “soluble fraction (log2)” value was -2.77.
The figure for “HMSDIIVQGNRRLDTDLIITDSQIREIGTDEKSLSLAVKNLYKTGYFENVQIFKDNSVVFINVKENQ” is -0.618; for “HMSDIQKGTQINLVNEPLYVSSKTSIVSTYKTGTYYTWGFEANNRIAITNKLENIGVKGQVTGWINKP” it is -1.73; for “HMSDKFNALWIILNKLDKKEKVTARSLMEDLEVSERSVYRYITTLQVAGFPVDYDRAVNSYVFSDGYTLK” it is -4.11.
The value for “HMSDKLTLPVQINGVFRYTIEINPSMQKDEIIDLVKNEERTAKYKQDKEIKNVIVVPGKIVNIII” was -0.339; that for “HMSDLPLLEHARQNLSDDEFRILELTTIYGYRRVEVAKMLGEPISTINWKYNKLIKKVKTFYGEVYN” was -0.998.
Take “HMSDLVATKEQVVEAYKYGLGLGLDNSTLKMLLFDIRGEDVADQDKISDGMTVSEIEIWKEGMRTIAEEYL”: the “soluble fraction (log2)” value was -0.5.
The value for “HMSDMIGQNIRRLRTEKQMTQKALADKLFVTAQAVSRWENGEVEPSLSTVTEIARIFNVSADEILGI” was -0.228; that for “HMSDPDPAEQALLRQFMTRYAAYRRRGQHPAGAFRTASLEVFGQEPSGDLRDVIVDLESGLV” was -0.234.
The value for “HMSDPELNDNEKKIYDIIFNKKSMDLTELKNLSELSNKQWDKGIKSLSKQDFVKVIKTEEALIVELV” was -0.509; that for “HMSDPSAQADALFNEGKTAEAFNVLLRLIEDSPEDQREDYRVRLLDLFRIAGNTPEVKAARRRLSALLM” was -0.237.
The value for “HMSDRFVRIVMNDGTVKLGQMISEDADFIRLKTNNLGELNIPKYLVLDMMDLTRSEYVRLSISNAG” was -0.282; that for “HMSDSAFAEMRRELEALRNSNAEYERALSNFFPEAEDKALAAEAFYQNREYDELVAEREEANVIDGLKR” was -0.198; that for “HMSDSISLTLNGDLRRFRAHATIADLVRDIGLDPVKVAVERNLEIVSRSTLEDVVLADGDRLEIVHFV” was -2.23.
With “HMSDSLVLTGVAYVDGKPVVTLFDKVKKESLVVTDQPNLKGWTLVEATQSSDIKRATAKVNIGGEPVSIRY”, the “soluble fraction (log2)” value is -0.0165.
With “HMSDTFENILQRLIKATGRKNASEMANALGLSPQSVYSAKTKGKIPPAWIFAAAERFNASADWIYFGY”, the “soluble fraction (log2)” value was -1.5.
The figure for “HMSDTSAIEKIIDEVLSDESSQKAINDIKNGNEKVYGFLVGQVMKKSQGKANPGLVQKMLREKIAK” is 0.116; for “HMSDYKSALQEAVQTNKQSIEYVLIKESGPAHNKTFTFEVRIDNISYGVGTAKSKKEAEQIAAKDALDKLV” it is -0.0877.
The value for “HMSDYVLLYSGLNTSDTTFLAYSFQEKGIRYKMPNPDEIEVRVQDVDQARRIAAGAQLGGQVS” was -0.536; that for “HMSEEGTIPDVSGQDEASAQKALENAGFTNIKSEAVYSEEEQGTVIDTNPTAGTKVSKDTEITMQVSKGSE” was 0.248; that for “HMSEEKLVFSIPDDIETMRIDKAIALETHLSRAQIAELFKENKILLNSKNSKRSEKVKPGDKISLEFIPKI” was -0.0442.
The value for “HMSEEVKSQPISILDLSTRASNGLKNEGIETIGELVKYSEDELLGLDKFGQNSLKEIKKKLEEIGLTLKEH” was 0.00703.
“HMSEFLTIVRAVYSGLSRRKVAAMHKVSRNTVSLYLRQARDQGWLTLEDLEKLDDLTVSQGVS”: the “soluble fraction (log2)” value is -2.08.
The value for “HMSEFVIPLAKYNKALYTQVSLGMRFRMLFETEDSGVRRYMGTITGIGDLDPIRWKNSHWRNLQV” was 0.191; that for “HMSEHLTLVVSDEDAGHRVDQFLVSRLAHMTRSQIQKLIKDGQVTIDTKLVRASTTVHTDNIVTIEFPPAV” was -1.21; that for “HMSEKLTLEAANEAAGMRIDKWLAMQLPELSRSRIEALISGGGVVVNGKNPSKSLKLKGGEQIELEIPE” was -0.0607.
The figure for “HMSELLIVGSEQDNTRLDRFLADQYEEYTRSFLQKLIDQGNVSINGISVKKSGIKLKENDEIAVTLPEPQ” is 0.646; for “HMSELPLTQKVAIVMVALGEEASGEVMKHLSDYEIEEITQAIAGLKNISVELMDQILEEYEQHLIAG” it is -0.515; for “HMSELTKEIGKRIHDFRKSRGLNQEELARLIYKSKATLSKYEKGEIAIDLDTLKQLALALHVRMEQLLPPT” it is -1.5.
The figure for “HMSENDTILAKFVSVMGNKNLELVIFPDIAYLKGQVSNPEDKTKAETVAQSLLGGKPLVSLIEFE” is -0.332.
Turning to “HMSENIQLQKEQLYQLIAQLPEQRQKIFRLHKIDNYSYQEISDFTGLSRKTIANHIYLAHQFILKKVKK”, the “soluble fraction (log2)” value was -3.76.
The value for “HMSENKIMEIVQDLAREKSVILISHRLANVTAADKILYMEQGKIAESGTHEQLMAQNKAYAALFNKQQEL” was -0.0206; that for “HMSENLESEFFGIVVITQTLLQKELRDKPMTVELIRKTVEDVMSKHYSDSSVDKAKVEEELIRRFSTW” was -1.32.
“HMSENMSQDLAQWYRLQQALHPNLDAPELWATDLTSQQRTVRDQLIQQWAQEKRDSLWSEISGD”: the “soluble fraction (log2)” value is -0.0639.
The figure for “HMSEPFDMAVPLTSGGRRLDQVLAELLPQHSRNRLQGWIRDGLLTLDGVTVTEPKRKLAGGEQLALLLP” is -0.169.
Take “HMSEPTLESLRAEGAHHYDPARFHYLEVLARRMPGQHAAVQQVLASRLREAVAAYAGRRSLI”: the “soluble fraction (log2)” value was -0.157.
As to “HMSEQSEALRTGLDQLPINQRTALTLFHLHELNQSEVAKIMNISVGAVESLLFRGRQKMKQLLTSD”, the “soluble fraction (log2)” value is -1.39.
The figure for “HMSERIITFGEATREAMLEEMRADERVFVYGEDIAKQGGIFGQFAGMKDEFPERVLDTPISETALVGAG” is 0.157; for “HMSERVVVPDLTGKDLVAAQSELREISLAGREEGPGDKVRRQFPVAGVKVPKDTVVILYTED” it is 0.0278.
The value for “HMSESAGKALDILFYLARVEDEVSLARLSKETGMNKATALRYLAVLESWGVVEKRPSGWSLGLSLFELGSK” was -2.05; that for “HMSESGTFRAEAADAGRRLDVALAERLRLSRAAAQRLIAAGLVLVEGSPARKRQILHAGETVAWRAAPP” was -1.03.
The figure for “HMSESLLTAAGFKTIAATTPEQKRHLEWLHPDQVTAVQLTGQHYYVYPDVAKSQLFVGTPKEYQAYLALRT” is -0.16; for “HMSESLRDLVLSLIPEDGSTIGNRALITRLREDLPDLTDEDYHEVRDQLIAEGVLAKGRGQGGSVARANG” it is 0.311.
For the sequence “HMSETIVFGQQKAINTLSSEAGLSSAELNNYLKKRYQRPLFQLTVSEGADLIQGFQDGTLTKASITQYVSQ”, the “soluble fraction (log2)” value was -0.0878.
The value for “HMSETQDQTTIEIEDMITVGTLAERLSIPVSTLIGELMKNGVMATVNEKIDFDTAQIIVGELKLPIELSKK” was 0.0487; that for “HMSEYEYALHEFGITKKQSQRIFDRLSIADLEERINAIQTTLKQRSDIDNPAAYAWTVLNAE” was -0.0603.
The figure for “HMSEYLDIHMAMEKLNRKEQLFVHLRFYEGLTQSEIAQRLFTSQVQISRLEKSVLEKMRQILSK” is -2.2; for “HMSEYTRGELVSSLEAGEVAAVSIRPNRETPTGEAQIVLSDGQHRVLYVTDVREIEELVSSYGLNPQVEK” it is 0.196; for “HMSFDNIKVGYISETAGYVKGISLADANEYAKLNPDTEFIFIDGDEKVRFLTINEVNGLTPKNLLRSDP” it is 0.229.
The value for “HMSFGFFELKSSDTDKLFAYLNNNEHFGNIKEENGLVTAFLTSELDAQTLNKLLFDNGIIASHLVKRK” was -0.928.
With “HMSFMPDPSIHDAITYTVRSGDYLGKISTTFGVKVSDLQKWNSIKSNIIYPGQKLTVWVSSNKRESLQ”, the “soluble fraction (log2)” value was -1.71.
The value for “HMSFPLKRGSKGNRVTQLQNALVKKFGASILPKYGVDGMFGKEVEAALVRAKLPTSINESTYNSFV” was 0.125; that for “HMSFVAYEEEKAIGMVRLIGDGGMSFYIKDFAVLPGHQGKGVGQMLLMELQQYLLEHKPADWAVSLE” was -0.359.
On to “HMSGAKLLAPVTGTLLRYTVAEGTKVSEGQTVIMLESMKMELEINAHKAGVIHFTAAAGAQVAEGDSLAEI”, for which the “soluble fraction (log2)” value is -0.945.
The figure for “HMSGDKKLQMNLILEFAQQNESFRTKDIEELLQIRSSRARKLISDLVTEGRLEALGENRNRRYQLI” is -1.05; for “HMSGDYRALYSSLPPERASSVVDALNVAGIPYRIQDSTGAIMVPAEQIYDARIRLAGQGLGK” it is 0.104.
